System: CHO-K1 cells
Assay: cell fractionation and anti-β-lactamase immunoblotting
Format: cell-based, Chinese hamster
Settings: 8 µM, 1.5 h at 37 °C, digitonin cytosol extraction, 4 µg aliquots, anti-β-lactamase antibody, Figure S1
Description: Supplementary Information
Supplementary Figures: β-Lactamase Tools for Establishing Cell Internalization and Cytosolic
Delivery of Cell Penetrating Peptides
Figure S1. Verification of cell penetrating peptides (CPP)-mediated β-lactamase internalization by immunoblotting. MW: molecular weight.
Aliquots (4 µg) of cytosolic and membrane soluble CHO-K1 cell fractions from β-lactamase assays were separated by sodium dodecyl sulfate–polyacrylamide gel electrophoresis (SDS-PAGE) through a 4-12% (w/v) polyacrylamide Bis-Tris gel, transferred to polyvinylidene difluoride (PVDF) membrane, and immunoblotted. β-lactamase conjugated (e.g., 1746_SpyT/SpyC_BLA) or fused (e.g., 1746_BLA recombinant) to 1746c27 and 1746 Phylomer cell penetrating peptides (CPPs) was detected in the cytosolic fraction to varying extents, while TAT-conjugated β-lactamase was predominantly detected in the membrane fraction of cell lysates. […]
delivered into the cytosol by the 1746 CPP. Internalization of unconjugated SpyC_BLA protein was not detected, either on its own (SpyC_BLA (no CPP)) or in the presence of 1746c27 peptide (1746c27, SpyC_BLA), illustrating there is no bystander uptake effect. […]
Aliquots of extracted fractions (4 µg) were separated through a 4–12% Bis-Tris gel (Invitrogen, Carlsbad, CA, USA). Protein expression in the fractions was detected using monoclonal anti-β- […]

B1: 1746_BLA: recombinant fusion of phylomer CPP 1746 with β-lactamase (protein)
chain: MASPLKPKKPKTQEKKKKQPPKPKKPKTQEKKKKQPPKPKRASSGSHHHHHHGATLEVLFQGPGGSHPETLVKVKDAEDQLGARVGYIELDLNSGKILESFRPEERFPMMSTFKVLLCGAVLSRIDAGQEQLGRRIHYSQNDLVEYSPVTEKHLTDGMTVRELCSAAITMSDNTAANLLLTTIGGPKELTAFLHNMGDHVTRLDRWEPELNEAIPNDERDTTTPAAMATTLRKLLTGELLTLASRQQLIDWMEADKVAGPLLRSALPAGWFIADKSGAGERGSRGIIAALGPDGKPSRIVVIYTTGSQATMDERNRQIAEIGASLIKHWQLGSASGTTGATSG
β-lactamase detected in cytosolic and membrane cell fractions (immunoblot): very strong signal in the cytosolic fractions

Source: publication PMC6163455 (Biomolecules, 2018)
